# Data taken from the RNAGym collection of RNA variant scans (doi:10.1093/molbev/msab373).
# B1: Azoarcus group I ribozyme (parent)
# chain: GUGCCUUGCGCCGGGAAACCACGCAAGGGAUGGUGUCAAAUUCGGCGAAACCUAAGCGCCCGCCCGGGCGUAUGGCAACGCCGAGCCAAGCUUCGGCGCCUGCGCCGAUGAAGGUGUAGAGACUAGACGGCACCCACCUAAGGCAAACGCUAUGGUGAAGGCAUAGUCCAGGGAGUGGCGAAAGUCACACAAACCGG
# Variants of: B1
# Experiment: reverse-splicing fitness (ratio to wild type); higher = more active; in vitro selection; Mg2+ level not given
# Method in brief: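 An in vitro group I ribozyme library with randomized positions was T7-transcribed and gel-purified. In triplicate, 10 pmol RNA in EPPS pH 7.5 was reacted with 50 pmoles of a 30-nt RNA substrate for 1 h at 37 °C across several added MgCl2 levels (1–48 mM), then stopped with EDTA. Products were reverse transcribed from a substrate-complementary primer, PCR-amplified and sequenced (HiSeq 4000). Fitness is a variant's read proportion after selection over that before, normalised to wild type.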
row,Variant,reverse-splicing fitness
1,C82U A120C A145U C150G C169A U176G,0.00423
2,C82U A120C A145U C150G C169A U176A,0.00958
3,C82U A120C A145U C150G C169A U176C,0.00716
4,C82U A120G A145C C150G C169G U176C,0.00713
5,C82U A120G A145C C150G C169G U176G,0.00336
6,C82U A120G A145C C150G C169G U176A,0.00838
7,C82U A120C C169U U176A,0.0188
8,C82U A120C C169U U176C,0.0166
9,C82U A120C C169U U176G,0.00414
10,C82U A120C A145U C150A C169G U176A,0.00898
11,C82U A120C A145U C150A C169G U176G,0.00397
12,C82U A120C A145U C150A C169G U176C,0.0081
13,C82U A120G A145U C150A C169U,0.0072
14,C82U A120G A145U C150A C169G,0.0077
15,C82U A120G A145U C150A C169A,0.00815
16,C82U A120C A145U C169A U176C,0.00593
17,C82U A120C A145U C169A U176A,0.00753
18,C82U A120C A145U C169A U176G,0.00364
19,C82U A120G A145C C150A C169G U176A,0.0215
20,C82U A120G A145C C150A C169G U176C,0.0125
21,C82U A120G A145C C150A C169G U176G,0.00402

row,Variant,reverse-splicing fitness
1,C82U A120G A145G C169A U176G,0.00333
2,C82U A120G A145G C169A U176C,0.0335
3,C82U A120G A145G C169A U176A,0.0221
4,C82U A120G A145G C150U,0.0208
5,C82U A120G A145G C150A,0.00966
6,C82U A120G A145G C150G,0.00813
7,C82U A120G A145G C169U,0.0197
8,C82U A120G A145G C169G,0.0254
9,C82U A120G A145G C169A,0.018
10,C82U A120C C150A C169A U176A,0.0169
11,C82U A120C C150A C169A U176C,0.0132
12,C82U A120C C150A C169A U176G,0.00426
13,C82U A120C A145U C150A U176C,0.0137
14,C82U A120C A145U C150A U176G,0.00478
15,C82U A120C A145U C150A U176A,0.0114
16,C82U A120G A145C C150U C169A U176A,0.00991
17,C82U A120G A145C C150U C169A U176C,0.00527
18,C82U A120G A145C C150U C169A U176G,0.00346
19,C82U A120C A145G C169A U176G,0.00317
20,C82U A120C A145G C169A U176C,0.0219
21,C82U A120C A145G C169A U176A,0.0158

row,Variant,reverse-splicing fitness
1,C82U A120G A145C C150G U176C,0.00608
2,C82U A120G A145C C150G U176G,0.00257
3,C82U A120G A145C C150G U176A,0.00438
4,C82U A120C A145G C150G C169A U176C,0.0131
5,C82U A120C A145G C150G C169A U176A,0.0124
6,C82U A120C A145G C150G C169A U176G,0.00772
7,C82U A120C C150U C169A,0.00876
8,C82U A120C C150U C169G,0.00713
9,C82U A120C C150U C169U,0.0165
10,C82U A120G A145C C150U U176C,0.00744
11,C82U A120G A145C C150U U176G,0.00347
12,C82U A120G A145C C150U U176A,0.00845
13,C82U A120G A145C C169G U176G,0.00391
14,C82U A120G A145C C169G U176C,0.0161
15,C82U A120G A145C C169G U176A,0.0276
16,C82U A120C C150G C169G U176C,0.00447
17,C82U A120C C150G C169G U176G,0.00432
18,C82U A120C C150G C169G U176A,0.00705
19,C82U A120G A145C C150A U176G,0.00372
20,C82U A120G A145C C150A U176A,0.0076
21,C82U A120G A145C C150A U176C,0.0066

row,Variant,reverse-splicing fitness
1,C82U A120G A145G C169U U176C,0.0187
2,C82U A120G A145G C169U U176A,0.0237
3,C82U A120G A145G C169U U176G,0.00378
4,C82U A120C A145G C150U C169G,0.00809
5,C82U A120C A145G C150U C169A,0.0101
6,C82U A120C A145G C150U C169U,0.0209
7,C82U A120C A145G C150U C169G U176A,0.0128
8,C82U A120C A145G C150U C169G U176C,0.0155
9,C82U A120C A145G C150U C169G U176G,0.00466
10,C82U A120G A145G C150G C169G U176C,0.0112
11,C82U A120G A145G C150G C169G U176G,0.00523
12,C82U A120G A145G C150G C169G U176A,0.0089
13,C82U A120G A145G C150A C169U,0.0101
14,C82U A120G A145G C150A C169G,0.0101
15,C82U A120G A145G C150A C169A,0.0113
16,C82U A120G A145G C150G C169U U176G,0.00698
17,C82U A120G A145G C150G C169U U176C,0.0118
18,C82U A120G A145G C150G C169U U176A,0.0122
19,C82U A120G A145C C169A U176A,0.00959
20,C82U A120G A145C C169A U176G,0.00332
